Source: paper doi:10.1101/416081v1

Columns and labels:
Assay in all cases: purified protein
[1] = system: CCCC(=O)Oc1ccc([N+](=O)[O-])cc1; conditions: pH 8.0; 25.0 °C
O=C1CCc2ccccc2O1 = conditions: pH 7.4; 25.0 °C
[2] = system: CC(=O)Oc1ccc([N+](=O)[O-])cc1; conditions: pH 8.0; 25.0 °C
CC(=O)Oc1ccccc1 = conditions: pH 8.0; 25.0 °C

What does the source list for reTAPON1-LIKE (Trichoderma atroviride)?
Km [1]: 1580 ± 120 µM; Km (O=C1CCc2ccccc2O1): 730 ± 10 µM; Km [2]: 1120 ± 140 µM; Km (CC(=O)Oc1ccccc1): 890 ± 60 µM
